Data on 4 molecules can be found in US20250000991A1, “NECTIN-4 ANTIBODIES AND ANTIBODY-DRUG CONJUGATES” (Eli Lilly and Company, priority 2023, published 2025).

A word on the IC50: it is the midpoint of a concentration-inhibition curve.

Substitutions are numbered along the chain they refer to.

The test system of one assay is MDA-MB-468 xenograft. As to the kind of experiment: Tumor xenograft, moderate nectin-4 expression. The class given is in vivo, NSG mice. To be noted: MDAMB468 xenograft, single dose 2 mg/kg, day 71. The method, then:
In a separate study, female NSG mice between 5-6 weeks of age were injected subcutaneously with MDA-MB-468 cells with moderate Nectin-4 expression. When tumors reached approximately 150-250 mm^3; animals were matched by tumor volume into treatment or control groups and dosing initiated (Day 0, n=8 per group). The test articles were given at a single dose (2 mg/kg) formulated with 5% Dextrose. Tumors were measured biweekly until Day 71.
In both models, a 2 mg/kg single dose treatment of either the nectin-4 ADCs (exemplified herein with each of Abs1-8 conjugated as in Formula XI, and with a DAR of 8) or benchmark enfortumab ADC (enfortumab conjugated with Formula XI, and with a DAR of 8) was used. Tumor growth was measured at day 40 for UMUC3 Nectin-4 clone F7 and day 71 for MDAMB468 xenografts.

Assay [1] relates to UM-UC-3 Nectin4 clone F7 xenograft. Put plainly: Tumor xenograft, high nectin-4 expression. Format: in vivo, mice (nu/nu). The following applies: UMUC3 Nectin-4 clone F7 xenograft, single dose 2 mg/kg, day 40. The method, then:
In order to test the efficacy of the nectin-4 ADCs of the present disclosure, which have effector null mutations in the Fc region, and to compare to the enfortumab antibody, which has wildtype Fc and in an ADC with the same payload background as the ones of this disclosure, two tumor xenograft models with either high or moderate nectin-4 expression were tested as described. Immune compromised female mice (nu/nu) between 5-8 weeks of age with weight 18-20 grams were implanted unilaterally on the right flank with UM-UC-3 Nectin4 clone F7 cells with high nectin-4 expression. […] The test articles were given at a single dose (2 mg/kg) formulated with 5% dextrose. Tumors were measured biweekly until Day 40.

The next assay concerns cyno Nectin-4. As to the kind of experiment: Surface plasmon resonance (Biacore 8K+) binding of nectin-4 ADCs to cyno Nectin-4. To be noted: cyno Nectin-4, 37° C., ADC Formula XI DAR 8, n=1. The method, then:
(§1) An anti-human Fc sensor surface was prepared by amine-coupling of goat anti-human IgG Fc (Southern Biotech Cat. No. 2014-01, Birmingham, AL) to a Biacore Series S CM4 (Cytiva Cat. No. BR-100534) sensor surface at 25° C. For immobilization, a running buffer of 10 mM HEPES, 150 mM NaCl, 0.05% Tween-20, pH 7.4 was used. Flow cells 1 & 2 of all 8 channels were activated with a 1:1 (v/v) mixture of 400 mM 1-Ethyl-3-(3-dimethylaminopropyl) carbodiimide hydrochloride (EDC) and […] N-Hydroxysuccinimide (NHS) at a flow rate of 10 uL/min for 7 minutes. Then the anti-human IgG Fc capture reagent was coupled to the sensor surface (diluted to 50 μg/mL in 10 mM Acetate pH 4.5 buffer) by injecting it in all flow cells and channels at a flow rate of 10 uL/min for 7 minutes. Remaining active groups were blocked by injecting 100 mM ethylenediamine (in 200 mM Borate buffer, pH 8.5) in all flow cells and channels at a flow rate of 10 uL/min for 7 minutes. All channels and flow cells were then preconditioned using three consecutive 1-minute injections of 75 mM phosphoric acid at 10 uL/min.
(§2) In each analysis cycle, a different ADC was captured on flow cell 2 of each channel by injecting it at 5 μg/mL and 10 uL/min. After capture, the same analyte was injected on flow cells 1 and 2 in all 8 channels for 2 minutes at 30 uL/n and dissociation was monitored for 10 minutes. After dissociation, all surfaces were regenerated with three 1-minute injections of 5 mM phosphoric acid at 10 uL/min. ADC capture and analyte cycles were repeated to obtain analyte binding of each ADC at concentrations of 0, 2.5, 7.4, 22, 67, 200 and 600 nM nectin-4.
(§3) Sensorgram data were fit globally with the default 1:1 binding model in Biacore Insight Evaluation Software v3.0.12.15655.
On the technique in general: SPR reads the build-up and loss of mass on a sensor chip optically.

The test system of assay [2] is T24 mScarlet clone 5 Nectin-4 negative cells. As to the kind of experiment: Bystander killing of T24-mScarlet clone 5 cells co-cultured with T24-human nectin4 clone108 (imaging). Format: cell-based. To be noted: T24-mScarlet clone5 : T24-human nectin4 clone108 9:1, 5 days, ADC Formula XI DAR 8; read-out: IC50 of bystander effect. The method, then:
T24 cell line was engineered to express mScarlet and clonally selected to test in bystander assay. T24-mScarlet clone5 and T24-human nectin4 clone108 were mixed and seeded at a total of 1000 cells/well/100 ul with a ratio of 9:1 in culture medium (McCoy's 5A+1× GlutaMax+10% Heat Inactivated Fetal Bovine Serum+400 μg/ml G418) in flat clear bottom 96-well plates. T24 mScarlet clone 5 cells were negative for nectin-4 expression. Plates were incubated at 37° C. with 5% CO2 overnight. Next day, ADCs were added at final working concentration from 50 nM, 1:4 serially diluted in culture medium. Plates were covered with Breathe-Easy® sealing membrane, placed in BioSpa and scanned in Cytation5 every day for 5 days.
Images of T24-mScarlet cells were captured and analyzed by Cytation5 with Gen5 Image Prime 3.11. Percentage of T24-mScarlet cell killing was calculated by decreased Integrated Intensity (area×mean intensity), normalized to zero hour and no treatment. Data was graphed and analyzed using GraphPad Prism version 9.5.1. IC50 was determined via log(inhibitor) vs. response-variable slope (four parameters) curve fitting.

For a further assay, the target named is rat Nectin-4. Put plainly: Surface plasmon resonance (Biacore 8K+) binding of nectin-4 ADCs to rat Nectin-4. The following applies: rat Nectin-4, 37° C., ADC Formula XI DAR 8, n=1. How it is done: as §1, §2, §3
A further assay has as its target T1, human Nectin-4 (Homo sapiens, UniProt Q96NY8).
T1 construct: His tag; purchased Acro Biosystems NE4-H52H3
T1 sequence (Q96NY8 32-510): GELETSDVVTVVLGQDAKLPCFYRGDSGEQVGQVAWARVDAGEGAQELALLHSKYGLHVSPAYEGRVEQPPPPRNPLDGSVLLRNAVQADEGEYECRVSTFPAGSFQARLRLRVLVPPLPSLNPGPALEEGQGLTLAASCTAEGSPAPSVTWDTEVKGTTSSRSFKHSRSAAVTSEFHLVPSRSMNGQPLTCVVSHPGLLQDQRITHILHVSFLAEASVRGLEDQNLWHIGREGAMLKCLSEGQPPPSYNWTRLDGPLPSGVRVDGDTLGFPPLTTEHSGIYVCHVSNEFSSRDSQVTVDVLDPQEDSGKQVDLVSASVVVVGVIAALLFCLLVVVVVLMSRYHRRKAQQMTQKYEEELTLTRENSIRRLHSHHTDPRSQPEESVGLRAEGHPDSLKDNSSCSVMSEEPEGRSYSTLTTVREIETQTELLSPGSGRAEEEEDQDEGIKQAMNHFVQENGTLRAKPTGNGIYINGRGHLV
As to the kind of experiment: Surface plasmon resonance (Biacore 8K+) binding of nectin-4 ADCs to human Nectin-4. The following applies: human Nectin-4, 37° C., ADC Formula XI DAR 8; n=3 mean ± SD, n=2 replicate values. How it is done:
as §1, §2, §3

B1: Ab1a ADC: Ab1a conjugated as in Formula XI, and with a DAR of 8 (conjugate)
heavy: QVQLVQSGAQVKKPGASVKVSCKASGYTFTGYYIHWVRQAPGQGLEWMGWINPNSGGTNYAQKFQGRVTMTRDTSISTAYMELSRLRSDDTAVYFCAREDWDFDYWGQGTLVTVSSASTKGPSVFPLAPSSKSTSGGTAALGCLVKDYFPEPVTVSWNSGALTSGVHTFPAVLQSSGLYSLSSVVTVPSSSLGTQTYICNVNHKPSNTKVDKRVEPKSCDKTHTCPPCPAPEAAGGPSVFLFPPKPKDTLMISRTPEVTCVVVSVSHEDPEVKFNWYVDGVEVHNAKTKPREEQYNSTYRVVSVLTVLHQDWLNGKEYKCKVSNKALPAPIEKTISKAKGQPREPQVYTLPPSREEMTKNQVSLTCLVKGFYPSDIAVEWESNGQPENNYKTTPPVLDSDGSFFLYSKLTVDKSRWQQGNVFSCSVMHEALHNHYTQKSLSLSPGK
light: EIVLTQSPGTLSLSPGERATLSCRTSQSVSSSYLAWYQQKPGQAPRLLIYGASNRATDIPDRFSGSGSGTDFTLTINRLEPEDFAVYYCQQYGSSPITFGQGTRLEIKRTVAAPSVFIFPPSDEQLKSGTASVVCLLNNFYPREAKVQWKVDNALQSGNSQESVTEQDSKDSTYSLSSTLTLSKADYEKHKVYACEVTHQGLSSPVTKSFNRGEC
On to B1, for which the Mean tumor volume in the assay with MDA-MB-468 xenograft is 135.24 mm^3; in assay [1], 234.79 mm^3.

B2: Ab4 (conjugate)
heavy: QVQLQESGPGLVKPSETLSLTCTVSGGSISGYYWSWIRQPPGKGLEWIGYIYYSGSTNYNPSLKSRVTISVDTSKNQFSLKLSSVTAADTAVYYCARLGIFFDAFDIWGQGTLVTVSSASTKGPSVFPLAPSSKSTSGGTAALGCLVKDYFPEPVTVSWNSGALTSGVHTFPAVLQSSGLYSLSSVVTVPSSSLGTQTYICNVNHKPSNTKVDKRVEPKSCDKTHTCPPCPAPEAAGGPSVFLFPPKPKDTLMISRTPEVTCVVVSVSHEDPEVKFNWYVDGVEVHNAKTKPREEQYNSTYRVVSVLTVLHQDWLNGKEYKCKVSNKALPAPIEKTISKAKGQPREPQVYTLPPSREEMTKNQVSLTCLVKGFYPSDIAVEWESNGQPENNYKTTPPVLDSDGSFFLYSKLTVDKSRWQQGNVFSCSVMHEALHNHYTQKSLSLSPGK
light: DIQLTQSPSFLSASVGDRVTITCRASQGISSYLAWYQQKPGKAPKLLIYAASTLQSGVPSRFSGSGSGTEFTLTISSLQPEDFATYYCQQFNSYPWTFGQGTKVEIKRTVAAPSVFIFPPSDEQLKSGTASVVCLLNNFYPREAKVQWKVDNALQSGNSQESVTEQDSKDSTYSLSSTLTLSKADYEKHKVYACEVTHQGLSSPVTKSFNRGEC
With B2, the ka in the assay on cyno Nectin-4 is 380000 M⁻¹ s⁻¹; with human Nectin-4 it was “(3.59 ± 0.80) × 10^5 1/Ms”. Moreover, the IC50 in assay [2] stood at 0.0798 nM. The KD result on rat Nectin-4 (KD = kd/ka) is given as “weak binding”. For the same molecule, the kd entry with human Nectin-4 is recorded as “(7.32 ± 1.19) × 10^−2 1/s”.

B3: Ab3 ADC: Ab3 conjugated as in Formula XI, and with a DAR of 8 (conjugate)
heavy: EVQLVESGGGLVKPGGSLRLSCAASGFNLNHYNMNWVRQAPGKGLEWVSSVSSGGGFRYYADSVRGRFTISRDNAKNSLYLQMNSLRAEDTAVYYCARGAVFHDAFDIWGQGTLVTVSSASTKGPSVFPLAPSSKSTSGGTAALGCLVKDYFPEPVTVSWNSGALTSGVHTFPAVLQSSGLYSLSSVVTVPSSSLGTQTYICNVNHKPSNTKVDKRVEPKSCDKTHTCPPCPAPEAAGGPSVFLFPPKPKDTLMISRTPEVTCVVVSVSHEDPEVKFNWYVDGVEVHNAKTKPREEQYNSTYRVVSVLTVLHQDWLNGKEYKCKVSNKALPAPIEKTISKAKGQPREPQVYTLPPSREEMTKNQVSLTCLVKGFYPSDIAVEWESNGQPENNYKTTPPVLDSDGSFFLYSKLTVDKSRWQQGNVFSCSVMHEALHNHYTQKSLSLSPGK
light: B2 light with G28D, A50V, F91I, W96F
For B3, the figures for the Mean tumor volume (in the assay on MDA-MB-468 xenograft; in assay [1]) were 366.45 mm^3 and 993.45 mm^3, respectively.

B4: Ab5 (conjugate)
heavy: QVQLVQSGAEVKKPGASVKVSCKASGYTFTSYYVHWVRQAPGQGLEWMGIINPSIISTSYAQKFQARVTMTRDTSTSTVYMELSSLRSEDTAVYYCARGLNFDAFDIWGQGTLVTVSSASTKGPSVFPLAPSSKSTSGGTAALGCLVKDYFPEPVTVSWNSGALTSGVHTFPAVLQSSGLYSLSSVVTVPSSSLGTQTYICNVNHKPSNTKVDKRVEPKSCDKTHTCPPCPAPEAAGGPSVFLFPPKPKDTLMISRTPEVTCVVVSVSHEDPEVKFNWYVDGVEVHNAKTKPREEQYNSTYRVVSVLTVLHQDWLNGKEYKCKVSNKALPAPIEKTISKAKGQPREPQVYTLPPSREEMTKNQVSLTCLVKGFYPSDIAVEWESNGQPENNYKTTPPVLDSDGSFFLYSKLTVDKSRWQQGNVFSCSVMHEALHNHYTQKSLSLSPGK
light: B2 light with F91L, S93N, W96F
B4: the ka in the assay on cyno Nectin-4 is 1.06e+06 M⁻¹ s⁻¹; with rat Nectin-4, 636000 M⁻¹ s⁻¹; with human Nectin-4 it was “(8.78 ± 1.07) × 10^5 1/Ms”. Also, the kd on cyno Nectin-4 was 0.0033 s⁻¹; on rat Nectin-4, 0.0199 s⁻¹; with human Nectin-4, “(3.46 ± 0.48) × 10^−3 1/s”. Besides, the IC50 in assay [2] came out at 0.0766 nM.
